40 variants from the Human Domainome abundance scans (Beltran et al. 2025) can be followed below.

± gives the uncertainty stated by the source.

The labels stand for the following.
B1: Double-stranded RNA-binding protein Staufen homolog 1, residues 183 to 249; numbered along this chain, O95793 (parent)
chain: KSEISQVFEIALKRNLPVNFEVARESGPPHMKNFVTKVSVGEFVGEGEGKSKKISKKNAAIAVLEEL

This series covers variants of B1. Kind of series: abundance fitness (aPCA) (normalised: wild type 0, dead -1); higher = more abundant; growth selection in yeast, the domain comes from the species named. Conditions: Homo sapiens.
For KSEISQVFEIALKRNLPVNFEVARESGPPHDKNFVTKVSVGEFVGEGEGKSKKISKKNAAIAVLEEL, the abundance fitness was determined as 0.199 ± 0.067.
Regarding KSEISQVFEIALKRNLPVNFEVARESGPPHEKNFVTKVSVGEFVGEGEGKSKKISKKNAAIAVLEEL, the abundance fitness was determined as 0.103 ± 0.049.
The result for KSEISQVFEIALKRNLPVNFEVARESGPPHTKNFVTKVSVGEFVGEGEGKSKKISKKNAAIAVLEEL reads 0.019 ± 0.044.
With KSEISQVFEIALKRNLPVNFEVARESGPPHFKNFVTKVSVGEFVGEGEGKSKKISKKNAAIAVLEEL, the abundance fitness is -0.263 ± 0.059.
Turning to KSEISQVFEIALKRNLPVNFEVARESGPPHHKNFVTKVSVGEFVGEGEGKSKKISKKNAAIAVLEEL, the abundance fitness amounted to 0.079 ± 0.076.
The result for KSEISQVFEIALKRNLPVNFEVARESGPPHQKNFVTKVSVGEFVGEGEGKSKKISKKNAAIAVLEEL reads 0.049 ± 0.044; that for KSEISQVFEIALKRNLPVNFEVARESGPPHNKNFVTKVSVGEFVGEGEGKSKKISKKNAAIAVLEEL, 0.083 ± 0.068.
For the variant KSEISQVFEIALKRNLPVNFEVARESGPPHRKNFVTKVSVGEFVGEGEGKSKKISKKNAAIAVLEEL, the abundance fitness was 0.025 ± 0.029.
Next, KSEISQVFEIALKRNLPVNFEVARESGPPHVKNFVTKVSVGEFVGEGEGKSKKISKKNAAIAVLEEL: -0.099 ± 0.042; KSEISQVFEIALKRNLPVNFEVARESGPPHPKNFVTKVSVGEFVGEGEGKSKKISKKNAAIAVLEEL: -0.132 ± 0.051; KSEISQVFEIALKRNLPVNFEVARESGPPHLKNFVTKVSVGEFVGEGEGKSKKISKKNAAIAVLEEL: -0.098 ± 0.035.
The result for KSEISQVFEIALKRNLPVNFEVARESGPPHSKNFVTKVSVGEFVGEGEGKSKKISKKNAAIAVLEEL reads 0.113 ± 0.038.
Take KSEISQVFEIALKRNLPVNFEVARESGPPHMANFVTKVSVGEFVGEGEGKSKKISKKNAAIAVLEEL: the abundance fitness is -0.037 ± 0.059.
Next, KSEISQVFEIALKRNLPVNFEVARESQPPHMKNFVTKVSVGEFVGEGEGKSKKISKKNAAIAVLEEL: -0.259 ± 0.044.
Next, KSEISQVFEIALKRNLPVNFEVARESYPPHMKNFVTKVSVGEFVGEGEGKSKKISKKNAAIAVLEEL: -0.437 ± 0.079.
For KSEISQVFEIALKRNLPVNFEVARESKPPHMKNFVTKVSVGEFVGEGEGKSKKISKKNAAIAVLEEL, the abundance fitness is -0.207 ± 0.052.
Consider KSEISQVFEIALKRNLPVNFEVARESSPPHMKNFVTKVSVGEFVGEGEGKSKKISKKNAAIAVLEEL, for which the abundance fitness is -0.267 ± 0.042.
Consider KSEISQVFEIALKRNLPVNFEVARESLPPHMKNFVTKVSVGEFVGEGEGKSKKISKKNAAIAVLEEL, for which the abundance fitness is -0.418 ± 0.036.
Turning to KSEISQVFEIALKRNLPVNFEVARESWPPHMKNFVTKVSVGEFVGEGEGKSKKISKKNAAIAVLEEL, the abundance fitness is -0.48 ± 0.046.
Take KSEISQVFEIALKRNLPVNFEVARESVPPHMKNFVTKVSVGEFVGEGEGKSKKISKKNAAIAVLEEL: the abundance fitness was -0.457 ± 0.047.
Next, KSEISQVFEIALKRNLPVNFEVARESTPPHMKNFVTKVSVGEFVGEGEGKSKKISKKNAAIAVLEEL: -0.309 ± 0.047; KSEISQVFEIALKRNLPVNFEVARESNPPHMKNFVTKVSVGEFVGEGEGKSKKISKKNAAIAVLEEL: -0.307 ± 0.081; KSEISQVFEIALKRNLPVNFEVARESMPPHMKNFVTKVSVGEFVGEGEGKSKKISKKNAAIAVLEEL: -0.395 ± 0.05.
Turning to KSEISQVFEIALKRNLPVNFEVARESGQPHMKNFVTKVSVGEFVGEGEGKSKKISKKNAAIAVLEEL, the abundance fitness is -0.202 ± 0.063.
With KSEISQVFEIALKRNLPVNFEVARESGDPHMKNFVTKVSVGEFVGEGEGKSKKISKKNAAIAVLEEL, the abundance fitness is -0.167 ± 0.096.
Next, KSEISQVFEIALKRNLPVNFEVARESGTPHMKNFVTKVSVGEFVGEGEGKSKKISKKNAAIAVLEEL: -0.177 ± 0.07.
Regarding KSEISQVFEIALKRNLPVNFEVARESGVPHMKNFVTKVSVGEFVGEGEGKSKKISKKNAAIAVLEEL, the abundance fitness is -0.278 ± 0.052.
Next, KSEISQVFEIALKRNLPVNFEVARESGKPHMKNFVTKVSVGEFVGEGEGKSKKISKKNAAIAVLEEL: -0.218 ± 0.057.
As to KSEISQVFEIALKRNLPVNFEVARESGMPHMKNFVTKVSVGEFVGEGEGKSKKISKKNAAIAVLEEL, the abundance fitness was -0.303 ± 0.062.
On to KSEISQVFEIALKRNLPVNFEVARESGAPHMKNFVTKVSVGEFVGEGEGKSKKISKKNAAIAVLEEL, for which the abundance fitness was -0.155 ± 0.056.
Take KSEISQVFEIALKRNLPVNFEVARESGCPHMKNFVTKVSVGEFVGEGEGKSKKISKKNAAIAVLEEL: the abundance fitness is -0.157 ± 0.069.
KSEISQVFEIALKRNLPVNFEVARESGEPHMKNFVTKVSVGEFVGEGEGKSKKISKKNAAIAVLEEL: the abundance fitness was -0.153 ± 0.062.
Next, KSEISQVFEIALKRNLPVNFEVARESGFPHMKNFVTKVSVGEFVGEGEGKSKKISKKNAAIAVLEEL: -0.35 ± 0.07; KSEISQVFEIALKRNLPVNFEVARESGWPHMKNFVTKVSVGEFVGEGEGKSKKISKKNAAIAVLEEL: -0.316 ± 0.046; KSEISQVFEIALKRNLPVNFEVARESGYPHMKNFVTKVSVGEFVGEGEGKSKKISKKNAAIAVLEEL: -0.342 ± 0.073.
On to KSEISQVFEIALKRNLPVNFEVARESGSPHMKNFVTKVSVGEFVGEGEGKSKKISKKNAAIAVLEEL, for which the abundance fitness is -0.089 ± 0.045.
Consider KSEISQVFEIALKRNLPVNFEVARESGNPHMKNFVTKVSVGEFVGEGEGKSKKISKKNAAIAVLEEL, for which the abundance fitness is -0.152 ± 0.091.
As for KSEISQVFEIALKRNLPVNFEVARESGHPHMKNFVTKVSVGEFVGEGEGKSKKISKKNAAIAVLEEL, the abundance fitness was -0.123 ± 0.091.
For KSEISQVFEIALKRNLPVNFEVARESGGPHMKNFVTKVSVGEFVGEGEGKSKKISKKNAAIAVLEEL, the abundance fitness is -0.111 ± 0.038.
The result for KSEISQVFEIALKRNLPVNFEVARESGIPHMKNFVTKVSVGEFVGEGEGKSKKISKKNAAIAVLEEL reads -0.322 ± 0.067.
